Assay [1] deals with HLA-A*6802 (human). Description: inhibition of 125I probe peptide binding to purified HLA, gel filtration; ratio = IC50 standard/IC50 test. A general note: Size exclusion chromatography separates by hydrodynamic size, large species first.
For assay [2], the target named is HLA-A*0201 (human). The description is as above.
Assay [3] addresses HLA-A*0202 (human). The description is as above.
In assay [4] the target is HLA-A*0206 (human). The description is as above.
In assay [5] the target is HLA-A*6802 (human). Kind of assay: inhibition of 125I-standard peptide binding to purified HLA, gel filtration.
The target in assay [6] is HLA-A*0201 (human). Described as above.
Assay [7] deals with HLA-A*0206 (human). Described as above.
Assay [8] deals with HLA-A*0301 (human). Description: competition with 125I-labelled standard peptide for purified HLA-A*0301, gel filtration; relative binding.
Assay [9] has as its target HLA-A*0201 (human). Description: competition with 125I-labelled standard peptide 941.01 for purified HLA-A*0201, gel filtration.
Assay [10] addresses HLA-A*0206 (human). Description: competition with 125I-labelled standard peptide 941.01 for purified HLA-A*0206, gel filtration.
Assay [11] addresses HLA-A*0202 (human). Kind of assay: competition with 125I-labelled standard peptide 941.01 for purified HLA-A*0202, gel filtration.
Assay [12] addresses HLA-A*6802 (human). Kind of assay: competition with 125I-labelled standard peptide 1072.34 for purified HLA-A*6802, gel filtration.
The target of assay [13] is HLA-A*0203 (human). Kind of assay: competition with 125I-labelled standard peptide 941.01 for purified HLA-A*0203, gel filtration.
Assay [14] addresses HLA-A*1101 (human). Kind of assay: competition with a 125I-labelled probe peptide for purified HLA-A*1101, gel filtration; value relative to the standard peptide.
For assay [15], the target named is HLA-A*1101 (human). Kind of assay: competition with 125I-labelled standard peptide for purified HLA, gel filtration. The conditions noted are these: scale: ratio.
Assay [16] has as its target HLA-A*0301 (human). Described as above. The conditions noted are these: scale: ratio.
A further assay concerns the target HLA-A*6801 (human). Described as above. The note with it: scale: ratio.
Another assay addresses HLA-A*3301 (human). The assay is described as above. The note with it: scale: ratio.
Assay [17] addresses HLA-A*1101 (human). Description: competition with 125I-labeled standard peptide for purified HLA-A*1101, gel filtration; relative binding.
The target of assay [18] is HLA-A*1101 (human). Description: inhibition of 125I-labeled probe peptide binding to purified HLA-A*1101, gel filtration; relative to standard peptide 940.06.
Assay [19] deals with HLA-A*0201 (human). Description: competition binding to purified HLA, 125I-labelled standard peptide, gel filtration; ratio = IC50 standard / IC50 test peptide.
Assay [20] deals with HLA-A*0203 (human). The assay is described as above.
The target in assay [21] is HLA-A*0301 (human). Description: competition with 125I-labelled probe peptide for purified HLA-A*0301, gel filtration.
Assay [22] concerns the target HLA-A*0203 (human). Description: inhibition of 125I-standard peptide binding to purified HLA, gel filtration.
The target in assay [23] is HLA-A*0202 (purified HLA class I molecule) (human). Description: competition with 125I-labelled standard peptide for purified HLA, gel filtration.
The target of assay [24] is HLA-A*0206 (purified HLA class I molecule) (human). Described as above.
For assay [25], the target named is HLA-A*0201 (human). Description: competition with 125I-labelled standard peptide for purified HLA, gel filtration; ratio = IC50 standard / IC50 test peptide. The note with it: remark: other sources report otherwise.
For assay [26], the target named is HLA-A*0203 (human). Described as above. The note with it: remark: other sources report otherwise.
For assay [27], the target named is HLA-A*0202 (human). Described as above. The note with it: remark: other sources report otherwise.
The target in assay [28] is HLA-A*0206 (human). Described as above. The conditions noted are these: remark: other sources report otherwise.
Assay [29] concerns the target HLA-A*0202 (human). Description: competition with 125I-labelled standard peptide 941.01 ([..]) for purified HLA-A*0202, gel filtration.
In assay [30] the target is HLA-A*0206 (human). Kind of assay: competition with 125I-labelled standard peptide 941.01 ([..]) for purified HLA-A*0206, gel filtration.
The target of assay [31] is HLA-A*0201 (human). Description: competition with 125I-labelled standard peptide 941.01 ([..]) for purified HLA-A*0201, gel filtration.
Another assay has as its target HLA-B*0702 (human). Kind of assay: competition with 125I-labeled standard peptide (1075.23 [..]) for purified HLA-B*0702, gel filtration.
Where [32] appears, read: remark: other sources report otherwise.

Read-outs that look alike come from different tables or passages of the source.

With ALPEKPAVYT (modifications not checked) [… (Kallikrein, position 235)], the binding affinity ratio with HLA-A*6802 (human) [1] was -0.0001; with HLA-A*0201 (human) [2] it was 0.0003; with HLA-A*0202 (human) [3] it was 0.005; with HLA-A*0206 (human) [4] it was 0.0005.
As for LLRLSEPAKIT (modifications not checked) [Kallikrein 123 …], the binding affinity ratio (IC50 standard peptide / IC50 test peptide) (ratio to standard peptide) was -0.0001 with HLA-A*6802 (human) [5], 0.0002 in the assay with HLA-A*0201 (human) [6] and -0.0001 in the assay with HLA-A*0206 (human) [7].
Turning to GFFLLGFLF (modifications not checked) [PSM peptide … (PSM position 31, 9 amino acids)], in the assay with HLA-A*0301 (human) [8], the binding affinity ratio (IC50 of the standard peptide / IC50 of the test peptide) came to 0.0005.
Take RAYSEKVT (modifications not checked) [RAYSEKVT (Kallikrein, position 186)]: the binding affinity ratio (IC50 of standard peptide / IC50 of test peptide) is -0.0001 with HLA-A*0201 (human) [9]; 0.0001 in the assay with HLA-A*0206 (human) [10]; -0.0001 with HLA-A*0202 (human) [11]; -0.0001 in the assay with HLA-A*6802 (human) [12]; 0.0003 in the assay with HLA-A*0203 (human) [13].
In the case of ETYELVEKFY (modifications not checked) [PSM peptide … (position 557, 10 amino acids)], in the assay with HLA-A*1101 (human) [14], the binding affinity ratio (IC50 of standard peptide / IC50 of test peptide) is 0.0002.
For PAELTDAVK (modifications not checked) [… (PSA, position 125)], the binding affinity ratio with HLA-A*1101 (human) [15] was 0.0002; in the assay with HLA-A*0301 (human) [16] it was 0.0002; in the assay with HLA-A*6801 (human), 0.0001; with HLA-A*3301 (human), 0.0006.
In the case of LAGAKGVILY (modifications not checked) [PSM 219 …], in the assay with HLA-A*1101 (human) [17], the binding affinity ratio (IC50 of standard peptide / IC50 of test peptide) turned out to be 0.0002.
As to CSPSCPLER (modifications not checked) [PAP peptide … (position 347, 9 amino acids)], the binding affinity ratio (IC50 of standard peptide / IC50 of test peptide) in the assay with HLA-A*1101 (human) [18] was 0.0006.
For the molecule KGEYFVEMY (modifications not checked) [PAP 322 …], the binding affinity ratio (IC50 of standard peptide / IC50 of test peptide) with HLA-A*1101 (human) [17] (setting [32]) is 0.0002.
For the molecule RAVCGGVL (modifications not checked) [RAVCGGVL (PSA, position 43)], the binding affinity ratio (IC50 of standard peptide / IC50 of test peptide) in the assay with HLA-A*0201 (human) [9] was -0.0001; with HLA-A*0206 (human) [10] it was -0.0001; with HLA-A*0202 (human) [11], -0.0001; with HLA-A*6802 (human) [12], -0.0001; with HLA-A*0203 (human) [13], 0.0003.
For ESYKHEQVY (modifications not checked) [PAP peptide … (position 95, 9 amino acids)], the binding affinity ratio (IC50 of standard peptide / IC50 of test peptide) in the assay with HLA-A*1101 (human) [14] (setting [32]) was determined as 0.0002.
In the case of RLSEPAKIT (modifications not checked) [… (Kallikrein, position 125)], the binding affinity ratio (IC50 of standard peptide / IC50 of test peptide) with HLA-A*0201 (human) [9] was -0.0001; with HLA-A*0206 (human) [10], -0.0001; in the assay with HLA-A*0202 (human) [11], -0.0002; with HLA-A*6802 (human) [12] it was -0.0002; with HLA-A*0203 (human) [13], 0.0009.
With DTCGGDSGGPL (modifications not checked) [… (Kallikrein, position 207, 11 amino acids)], the binding affinity ratio with HLA-A*0201 (human) [19] worked out at 0.0001; with HLA-A*0203 (human) [20], 0.0005.
For the molecule ALPEKPAV (modifications not checked) [ALPEKPAV (Kallikrein, position 235)], the binding affinity ratio was -0.0001 with HLA-A*6802 (human) [1] (setting [32]), 0.0009 with HLA-A*0201 (human) [2] (setting [32]), 0.02 in the assay with HLA-A*0202 (human) [3] (setting [32]) and 0.0001 with HLA-A*0206 (human) [4] (setting [32]).
Take AAHCLKKNSQV (modifications not checked) [… (Kallikrein, position 63)]: the binding affinity ratio in the assay with HLA-A*0201 (human) [2] (setting [32]) was found to be 0.0003; with HLA-A*0202 (human) [3] (setting [32]), 0.0006; with HLA-A*0206 (human) [4] (setting [32]), 0.0001.
PANEYAYRR (modifications not checked) [PSM 273 peptide …]: the binding affinity ratio (IC50 of the standard peptide / IC50 of the test peptide) in the assay with HLA-A*0301 (human) [21] was determined as 0.0001.
On to LLSNDMCA (modifications not checked) [Kallikrein 178 LLSNDMCA], for which the binding affinity ratio (IC50 standard peptide / IC50 test peptide) (ratio to standard peptide) is -0.0001 with HLA-A*6802 (human) [5], 0.0003 with HLA-A*0201 (human) [6] and 0.0003 with HLA-A*0203 (human) [22].
MLCAGLWT (modifications not checked) [Kallikrein (hK2) peptide MLCAGLWT (position 196, 8 amino acids)]: the binding affinity ratio (IC50 of standard peptide / IC50 of test peptide) in [23] was determined as 0.002; in assay [24], 0.0001.
For the molecule PTQEPALGTT (modifications not checked) [Kallikrein (hK2) peptide …, position 142, 10 amino acids], the binding affinity ratio (ratio to standard peptide) worked out at 0.0084 with HLA-A*0201 (human) [25], 0.052 in the assay with HLA-A*0203 (human) [26], 0.022 in the assay with HLA-A*0202 (human) [27] and 0.0037 with HLA-A*0206 (human) [28].
DALFDIESK (modifications not checked) [PSM peptide … (position 710, 9 amino acids)]: the binding affinity ratio (IC50 of standard peptide / IC50 of test peptide) with HLA-A*1101 (human) [18] was 0.0002.
TTCYASGWGSI (modifications not checked) [Kallikrein (hK2) peptide … (position 150, 11 amino acids); the same letters in PSA at position 146]: the binding affinity ratio (IC50 of standard peptide / IC50 of test peptide) in the assay with HLA-A*0202 (human) [29] was 0.0009; with HLA-A*0206 (human) [30], 0.0005; with HLA-A*0201 (human) [31], -0.0001.
PTQEPALGTT (modifications not checked) [PSA peptide …, position 138, 10 amino acids]: the binding affinity ratio (ratio to standard peptide) came to 0.0084 with HLA-A*0201 (human) [25], 0.052 with HLA-A*0203 (human) [26], 0.022 with HLA-A*0202 (human) [27] and 0.0037 with HLA-A*0206 (human) [28].
As for YPNKTHPNY (modifications not checked) [PSM peptide … (position 119, 9 amino acids)], the binding affinity ratio (IC50 of standard peptide / IC50 of test peptide) in the assay with HLA-B*0702 (human) was 0.0001.

The values above are taken from US20070020327A1.
